# Data as given in publication PMC9634978 (Molecular Biology of the Cell, 2022).
# Changes are numbered by the printed parent chain.
# T1: his6-Sec18 (S. cerevisiae, UniProt P18759 1-758)
# T1 sequence (looked up): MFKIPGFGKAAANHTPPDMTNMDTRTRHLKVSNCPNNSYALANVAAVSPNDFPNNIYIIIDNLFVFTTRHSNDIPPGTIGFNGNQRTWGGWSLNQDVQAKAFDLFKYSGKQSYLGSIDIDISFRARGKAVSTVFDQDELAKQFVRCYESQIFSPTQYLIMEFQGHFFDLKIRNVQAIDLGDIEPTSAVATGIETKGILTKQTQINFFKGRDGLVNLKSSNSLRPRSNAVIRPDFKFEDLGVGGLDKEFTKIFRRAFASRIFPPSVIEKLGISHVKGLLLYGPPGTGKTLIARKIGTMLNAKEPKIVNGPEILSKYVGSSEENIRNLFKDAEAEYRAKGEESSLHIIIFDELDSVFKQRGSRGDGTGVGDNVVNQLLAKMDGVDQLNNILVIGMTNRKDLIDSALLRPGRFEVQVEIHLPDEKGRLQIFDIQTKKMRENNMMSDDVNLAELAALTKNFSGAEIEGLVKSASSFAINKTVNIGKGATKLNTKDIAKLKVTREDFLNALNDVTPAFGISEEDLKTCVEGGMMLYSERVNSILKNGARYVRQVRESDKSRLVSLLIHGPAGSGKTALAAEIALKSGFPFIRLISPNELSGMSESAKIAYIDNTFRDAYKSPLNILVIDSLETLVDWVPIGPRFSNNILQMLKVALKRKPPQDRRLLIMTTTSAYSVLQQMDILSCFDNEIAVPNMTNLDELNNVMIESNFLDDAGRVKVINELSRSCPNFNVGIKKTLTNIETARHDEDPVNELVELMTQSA
# B1: Sec17-K159EK163E (natural protein, S. cerevisiae, UniProt P32602 1-292, looked up)
# chain: MSDPVELLKRAEKKGVPSSGFMKLFSGSDSYKFEEAADLCVQAATIYRLRKELNLAGDSFLKAADYQKKAGNEDEAGNTYVEAYKCFKSGGNSVNAVDSLENAIQIFTHRGQFRRGANFKFELGEILENDLHDYAKAIDCYELAGEWYAQDQSVALSNECFIECADLKALDGQYIEASDIYSKLIKSSMGNRLSQWSLKDYFLKKGLCQLAATDAVAAARTLQEGQSEDPNFADSRESNFLKSLIDAVNEGDSEQLSEHCKEFDNFMRLDKWKITILNKIKESIQQQEDDLL
# B2: his6-Sec17 (natural protein, S. cerevisiae, UniProt P32602 1-292, looked up)
# chain: B1 chain with E159K, E163K
# Columns and labels:
# [1] = target: T1, his6-Sec18; test: liposome co-floatation
# [2] = target: T1, his6-Sec18; test: liposome co-floatation; remark: listed apart in the source
Binder,binding result [1],stoichiometry N [2]
B1,binds,–
B2,–,~3 mol Sec17 per mol Sec18 hexamer
